Measurements published in PMC4457907.

Key:
[1] = target: T1, AtrA (Streptomyces coelicolor) (UniProt Q9KYF2); assay: EMSA; settings: SlbR EMSA: 0.5x TBE pH 8.0, 0.0375% glycerol, 5 mM MgCl2, 1 mM DTT, 7.5 ug salmon sperm DNA in 20 ul, 30 min room temperature; AtrA EMSA: as Uguru et al. 2005 …
T1 sequence: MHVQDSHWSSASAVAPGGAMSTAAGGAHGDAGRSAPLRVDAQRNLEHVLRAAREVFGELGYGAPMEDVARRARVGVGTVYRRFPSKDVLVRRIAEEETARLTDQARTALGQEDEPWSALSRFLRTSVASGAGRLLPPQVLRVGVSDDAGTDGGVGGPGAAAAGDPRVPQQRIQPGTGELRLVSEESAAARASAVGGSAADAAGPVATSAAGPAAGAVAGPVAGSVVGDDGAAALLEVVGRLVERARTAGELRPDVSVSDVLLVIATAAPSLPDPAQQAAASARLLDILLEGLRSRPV

[2] = system: AtrA (Streptomyces coelicolor); assay: EMSA; settings: SlbR EMSA: 0.5x TBE pH 8.0, 0.0375% glycerol, 5 mM MgCl2, 1 mM DTT, 7.5 ug salmon sperm DNA in 20 ul, 30 min room temperature, AtrA EMSA: as Uguru et al. 2005 …

For “AGCCGCGGGAACCAACGTCGCACGGCATGATCACGCAGGTCAGCGTGGGTGAGTGGGGGTTCGGAGGGGGGCACATCCGGGGCGGGCGCCATCCGTGCTCCGATCGGGGGGCGCTCCGTGCGGAACGTGCCCCTTCTGAATTGACCCCCGCTCAACTATGTTCTTTCCCACGGTGTGTAG (double strand) [SCO4119 promoter probe (179 bp)]”, which binding signal [1] is on record?
Its binding signal is “binds more weakly”.

With “GTGAGAGCCGTGGGACACCGGTGGCGGTAACAGGAACCACCGGTTCCCTCGGGCGAGGGAAGTTTCCCGGACGGACCGTCGGTGAGCGGTGACCGACGGTTAGAGTCCGGAACTCCACGCGGGGGCGACTCCGCGAATGGCGCACCCCCCACCCGTGTTCGCCGCACGGGCCGCCACCTCGCGTTCCGGGAGTGATCCTTGGCCACGGCTGACACCGCATTCGCT (double strand) [ssgR promoter probe (224 bp)]” as the substance, how does the Kd [1] read?
The Kd was 1200 nM.

Which Kd ([2]; cited from earlier work) does the source give for actII-ORF4 site 2 probe (100 bp) here?
The Kd was 150 nM.

For ssgR promoter probe (224 bp), which Kd ([2]; apparent Kd', 5 nM probe) is on record?
The Kd was 1200 nM.
